Tests used:
[1] = target: human Siglec-9 expressed on human cells (human) (UniProt Q9Y336); experiment: flow cytometry on human primary monocytes, 10 ug/ml mAb, PE secondary
[2] = target: Histidine-tagged human Siglec-9 (NovoProtein) (human) (UniProt Q9Y336); experiment: SPR Biacore T200, 25 C, 25 nM mAb captured on anti-mouse IgG CM5 chip, His-tagged Siglec-9 200 nM as analyte, single-concentration 1:1 fit
[3] = target: human Siglec-9 expressed on human cells (human) (UniProt Q9Y336); experiment: cell-based or functional assay
[4] = target: Siglec-9-Fc (R&D Systems, catalog number 1139-SL-050) (human) (UniProt Q9Y336); experiment: FACS ligand competition: 25 ug/ml mAb pre-coupled with 25 ug/ml Siglec-9-Fc, binding to sialic acid ligands on U937 cells, anti-human IgG-PE
[5] = target: human Siglec-9 expressed on human cells (human) (UniProt Q9Y336); experiment: flow cytometry on human primary dendritic cells, 10 ug/ml mAb, PE secondary
[6] = target: human Siglec-9 expressed on human cells (human) (UniProt Q9Y336); experiment: flow cytometry on human primary macrophages, 10 ug/ml mAb, PE secondary

human Siglec-9 expressed on human cells (human), sequence (Q9Y336 18-463): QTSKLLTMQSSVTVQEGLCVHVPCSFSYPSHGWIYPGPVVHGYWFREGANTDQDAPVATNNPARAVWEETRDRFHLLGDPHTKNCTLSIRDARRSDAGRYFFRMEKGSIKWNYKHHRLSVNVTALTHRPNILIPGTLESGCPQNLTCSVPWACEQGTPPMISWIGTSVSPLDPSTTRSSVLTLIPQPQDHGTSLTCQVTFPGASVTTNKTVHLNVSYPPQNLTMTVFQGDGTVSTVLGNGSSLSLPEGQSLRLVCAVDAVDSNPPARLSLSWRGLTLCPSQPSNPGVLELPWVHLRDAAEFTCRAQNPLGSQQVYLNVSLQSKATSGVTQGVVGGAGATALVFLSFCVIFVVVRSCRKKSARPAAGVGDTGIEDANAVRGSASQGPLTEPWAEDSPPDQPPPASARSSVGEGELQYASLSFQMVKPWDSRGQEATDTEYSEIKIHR
Histidine-tagged human Siglec-9 (NovoProtein) (human), sequence (Q9Y336 18-348 limits assumed): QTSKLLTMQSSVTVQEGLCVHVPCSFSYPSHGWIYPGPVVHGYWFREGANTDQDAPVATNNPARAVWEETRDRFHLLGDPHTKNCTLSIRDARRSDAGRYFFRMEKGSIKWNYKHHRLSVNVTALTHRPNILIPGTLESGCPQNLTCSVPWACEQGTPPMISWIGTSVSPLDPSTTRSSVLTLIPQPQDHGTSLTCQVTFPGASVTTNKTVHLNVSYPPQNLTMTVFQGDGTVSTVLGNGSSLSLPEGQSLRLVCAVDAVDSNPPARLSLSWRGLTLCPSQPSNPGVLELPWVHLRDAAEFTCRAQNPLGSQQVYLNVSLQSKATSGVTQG
Siglec-9-Fc (R&D Systems, catalog number 1139-SL-050) (human), sequence (Q9Y336 18-348 limits assumed): as above

% Positive [1]: 29.6%
MFI [1]: 198
Kd [2]: 6.7 nM
Percent Siglec-9 Surface Expression, DCs (% Siglec-9) [3]: 60.2%
Percent Siglec-9 Surface Expression, Macrophages (% Siglec-9) [3]: 21.3%
Percent Siglec-9 Surface Expression, Microglia (% Siglec-9) [3]: 45.4%
Percent Siglec-9 Surface Expression, Monocytes (% Siglec-9) [3]: 42.2%
Percent Siglec-9 Surface Expression, THP-1 cells (% Siglec-9) [3]: 62.6%
Percent Siglec-9-Fc Binding [4]: 97.8%
% Positive [5]: 27.6%
MFI [5]: 197
% Positive [6]: 93.5%
MFI [6]: 473
B1: anti-Siglec-9 antibody 6D8 (antibody, IgG2b, V domains shown, part only)
VH: VQLQQSGAELVKPGASVKLSCKASGYTFTSYWMHWVKQRPGQGLEWIGEIDPSDSYTYYNQKFKGKATLTVDKSSSTAYMQLSSLTSEDSAVYYCAAYYSNYVRAYWGQGTLVTVSA
VL: DIQKPQSPFYMCVSGGETISISSHTTRGIYWYKGGSAEKPEKPFKLEIYCARNGEGGAPSRFSGRGSGTDFSLTINRGESEDCAEYYCAQFYQFPWTFGGGTKLEIK

From US20190062427A1
